assay: soluble on expression in E. coli; label from the status in PepcDB or PDB records

Sequence | soluble on expression in E. coli
MADLFDEFIEPGVKNEIMDVEEAPENPMEKLDSAKKRQAREDMTNLLANMHNDVGVGNFDEATSKRARVEEEEEVEEARMENIIVHTIRTDNENCTHEVAIPPNAEFAELRENSGTEPAKYYPFQLDAFQKQAILCIDNNQSVLVSAHTSAGKTVVATYAIAKCLREKQRVIYTSPIKALSNQKYRELEEEFKDVGLMTGDVTLNPDASCLVMTTEILRSMLYRGSEIMKEVGWVVYDEIHYMRDKERGVVWEETIILMSKNIKQAFLSATIPNARQFAQWVASIKQQPVNVVYTDYRPTPLQHWIYPVGGEGMYEVVNVKGEFREDKFRDAMSGLATAGDSAGSFNKRRTGGGTQGDSNVLKIIRSVASNDGLNCIVFSFSRKECESYAISLKDMDFNKDHEKGMVKSVYESAIAQLSPEDQKLPQILNILPLLRRGIGVHHSGLMPILKETIEILFGEGLVKVLFATETFSMGLNMPARTVVFTSARKFDGSDNRYITSGEYIQMAGRAGRRGKDDRGTVILMVDSAMSADDAKQIIKGATDPLNSQFRLTYNMVLNLMRVEGMAVSWIINNSFHQFQSYAKIPEIDKKCVQVERKIASFNFPWENEMRTLVDLQDQLEATRQRIIQIQREPKYIVGFLHAGRLFKVKSGDRDFKWGILNQFKKEQNPDDRNDQIYLCDMMIAINTEGRFDPTNPATLVPGFDLPKRRWIRVPMTIDRITAISAVRLKVPADIDKPDGQMRLDGMMAAATKRFGNQIPLLDPIQDMEIKTVEMKELIAREKSLEGRLETHSMTKRDNMKDLKKQFEQKQDAVKELNALKAERKSVQSTLHLEELNNRKRVLRRLGYLGNDDALVLKGSVACELSASDELILTEMLLKGIFNTLDVAQTAALLSCFVFQDKCAAPKLATELQTCLSELHEQARNVAKVSNECKMEVMEDKYVSSFNPGLMDVVYQWVNGATFSEIVKTTDVFEGSIIRTLRRLEEVLREMINAAKALANKELEQKFEDARKNLKRDIVFAASLYL | not soluble
SDITLESLRHIIAQVLPHRDPALVFKDLNVVSMLQEFWESKQQQKAAFPSEGVVVYESLPAPGPPFVSYVTLPGGSCFGNFQCCLSRAEARRDAAKVALINSLFNELPSRRITKEFIMESVQEAVASTSGTLDDADDPSTSVGAYHYMLESNMGKTMLEFQELMTIFQLLHWNGSLKALRETKCSRQEVISYYSQYSLDEKMRSHMALDWIMKERDSPGIVSQELRMALRQLEEARKAGQELRFYKEKKEILSLALTQICSDPDTSSPSDDQLSLTALCGYH | soluble
MSEQQPNLRERRRSETRRLVQAHAVRLFTDHGYDAVTVADVAEAAGVSAMTVYRHFPTKEDLVLIDQPAQLIAEHVAASSAAQPLVRRVGSALIDAATNWTGGNGDEQAANERFLLDCLRLMVSTPALRARHLDSQYALQQAIVDALGDDATGPDAAFRAQAATSACIAAMHTALTRWVEDDGHTKLPDLIARALTASFGDDAVATRRKG | not soluble
MGRGEHKEHKRKRSRSKERKRSRSRSPRGSREHREHRDRDRDRERRRERDTDREKTRDREKQRDAEKKKEKESKTAIFEMEESRNDTEEVMKMKEAELLQGVERRRRNVEKWRAQKKKEELDLQSEQSDEKSEKKPWNLEDEDDEDEFDIKNEGISEENPVKMEEKVEKMDTDDEEDPLDAFMKEIATKNAKKTGNSTQKASGIVTIVQEEKPEPEKGQVLENEDNMDMVIDDFDIETAAASLCHKGRMLAQTDHSKVYYRKFKKNFYIETEEIRRMTKAEVKAYREELDSITVKGIDCPKPIKTWAQCGVNLKMMNVLKKFEYSKPTSIQAQAIPSIMSGRDVIGIAKTGSGKTLAFLLPMFRHILDQPELEEGDGPIAVILAPTRELAMQTYKEANKFAKPLGLKVACTYGGVGISEQIADLKRGAEIVVCTPGRMIDVLAANSGKVTNLRRVTYLVLDEADRMFDKGFEPQIMKVVNNIRPDKQTVLFSATFPRHMEALARKVLDKPVEILVGGKSVVCSDITQNAVICAEHQKFLKLLELLGMYYEEGSSIVFVDKQEKADDIVDQLMRTGYNSVAPLHGGIDQHDRDSSIADFKTGVIKVLVATSVAARGLDVKNLILVVNYDCPNHYEDYVHRVGRTGRAGRKGYAYTFVLPEHQEKMAGEICRAFETAGCKPPADLKAMFERFKSEMAAEGKEVKLGGKGFEGSGYKYDEGEAEADANKKRMTRLTAQLQRGGTQARYKV | not soluble
MPEDLALESNPSDHPRASTIFLSKSQTDVREKRKSNHLNHCDLSNILPHKEQREKVPEEYFKHDPEHKFIYRFVRTLFSAAQLTAECAIVTLVYLERLLTYAEIDICPTNWKRIVLGAILLASKVWDDQAVWNVDYCQILKDITVEDMNEMERHFLELLQFNINVPASVYAKYYFDLRSLADDNNLNFLFAPLSKERAQNLEAISRLCEDKDLCRAAMRRSFSADNFIGIQRSKAILS | not soluble

From the DeepSol protein solubility set
